The target of one series is T1, mouse γc (Mus musculus, UniProt P34902).
T1 construct: 6×His (C)
T1 sequence (P34902 with tags, fused parts or gaps): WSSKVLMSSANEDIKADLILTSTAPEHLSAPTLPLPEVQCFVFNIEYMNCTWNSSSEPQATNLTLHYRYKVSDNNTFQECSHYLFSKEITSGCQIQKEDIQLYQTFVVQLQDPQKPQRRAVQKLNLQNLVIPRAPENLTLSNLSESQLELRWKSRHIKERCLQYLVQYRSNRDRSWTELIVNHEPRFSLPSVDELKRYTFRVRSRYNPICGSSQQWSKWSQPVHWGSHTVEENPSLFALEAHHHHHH
The series is described as follows: BLI binding kinetics to mouse γc protein. (In BLI a coated tip is dipped into the sample, and binding shifts an interference pattern.)

The next series deals with IL-2 induced p-STAT3. The experiment in a line: Suppression of p-STAT in PBMC, IL-2. It is filed as cell-based, human. The note with it: antibody 10 μg/ml, compared to isotype control. How it is done:
(§1) Given numbers refer to the percentage of inhibition compared to isotype control stimulated with respective γc cytokine. Antibody concentration is 10 μg/ml.

The subject of the next series is IL-4 induced p-STAT6. The series is described as follows: Suppression of p-STAT in PBMC, IL-4. The class given is cell-based, human. The note with it: antibody 10 μg/ml, compared to isotype control.
Description: PBMC isolated from healthy individuals (iXCells Biotechnologies, San Diego, USA) is chosen as the primary immune cell culture to conclude the efficacies of anti-γc antibodies in the primary cells. As STAT phosphorylation could be triggered by the treatment of all six γc cytokines (except IL-9) in the PBMC culture (FIG. 12A-B), inhibition of p-STAT could be used as an indicator to confirm the efficacies of anti-γc antibodies.
as §1

In another series the test system is IL-7 induced p-STAT5. The series is described as follows: Suppression of p-STAT in PBMC, IL-7. It is filed as cell-based, human. The note with it: antibody 10 μg/ml, compared to isotype control. How it is done: as §1
In a further series the test system is IL-21 induced p-STAT3. The series is described as follows: Suppression of p-STAT in PBMC, IL-21. The note with it: antibody 10 μg/ml, compared to isotype control. The class given is cell-based, human. As for the experimental part:
as §1

The nature of series [1]: Structural stability by SEC-HPLC. The class given is physicochemical. The conditions noted are these: for purity by SEC-HPLC after incubation: 12 days after PBS exchange at RT and 37° C. How it is done:
Next, structural stabilities of hSM-05A and hSM-05E were studied by incubation at either room temperature or 37° C. for around 2 weeks. SEC-HPLC was utilized to measure aggregates and degradation of antibodies. […] No degradation of the antibodies was observed aft er 2 weeks.

In the next series the test system is HaCaT cells. The experiment in a line: ADCC assay on HaCaT cells with human PBMC. The note with it: 33 nM (5 μg/ml), vs isotype antibody. It is filed as cell-based. How it is done:
γc expressing human keratinocyte HaCaT cell line was utilized as the target cells in ADCC and CDC assays. To determine the ADCC activity, HaCaT cell was pre-binded with anti-γc antibodies before co-culture with human PBMC. To determine the CDC activity, HaCaT cell was pre-binded with anti-γc antibodies before incubation with low-endotoxin complement proteins extracted from guinea pig. ADCC was determined by percentage of PI+ HaCaT cells in flow cytometry analysis while CDC was measured by the WST-8 proliferative assay of HaCaT cells in a 96-well plate (FIG. 22A).

The target of a further series is T2, γc proteins from human (Homo sapiens, UniProt P31785).
T2 construct: extracellular domain of human γc protein (amino acids: 1-262); host or cells: Expi-CHO (e.g.)
T2 sequence (P31785 23-262): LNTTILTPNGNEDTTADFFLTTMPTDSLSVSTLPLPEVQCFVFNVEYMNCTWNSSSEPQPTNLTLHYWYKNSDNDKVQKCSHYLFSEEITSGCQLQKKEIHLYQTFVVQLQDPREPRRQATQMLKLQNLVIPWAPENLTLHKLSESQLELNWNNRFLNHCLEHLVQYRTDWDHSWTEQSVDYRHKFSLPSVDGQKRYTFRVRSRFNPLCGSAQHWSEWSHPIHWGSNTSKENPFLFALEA
The series is described as follows: ELISA binding of full-length antibodies to human γc. The conditions noted are these: humanized antibodies with back-mutation. As for the experimental part:
Selected clones of full-length antibodies were evaluated by ELISA to access the binding specificity. The binding activities of full-length anti-γc antibody were investigated using γc proteins (extracellular domain) from human (SEQ ID NO: 205-206), cynomolgus (Sequence ID: XP_005593949.1, SEQ ID NO: 207-208) and chimpanzee (Sequence ID: XP_008971810.1, SEQ ID NO: 209-210) either purchased from Sino Biological or in-house generated.
Humanized antibodies with back-mutation (hSM-05A and hSM-05E) were tested in the following assays. Binding affinities were investigated in the ELISA assays.

A further series has as its target T3, human γc protein (Homo sapiens, UniProt P31785).
T3 construct: endogenous in cells; host or cells: Ramos B cells
T3 sequence (P31785 23-369): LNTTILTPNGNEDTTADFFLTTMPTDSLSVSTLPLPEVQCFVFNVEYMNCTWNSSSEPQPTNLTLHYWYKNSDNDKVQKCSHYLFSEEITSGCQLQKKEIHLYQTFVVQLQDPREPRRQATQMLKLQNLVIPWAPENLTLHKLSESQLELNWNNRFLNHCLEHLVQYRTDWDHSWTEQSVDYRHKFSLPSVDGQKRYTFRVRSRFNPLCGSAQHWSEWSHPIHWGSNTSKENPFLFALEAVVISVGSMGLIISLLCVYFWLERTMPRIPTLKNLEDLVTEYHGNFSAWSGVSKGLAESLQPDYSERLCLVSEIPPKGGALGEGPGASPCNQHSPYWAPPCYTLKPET
The series is described as follows: Competition assay on Ramos B cells, flow cytometry. It is filed as binding. The conditions noted are these: unconjugated hSM-05A then FITC-conjugated hSM-05E, 33 nM. As for the experimental part: Purified anti-γc antibodies were conjugated to FITC fluorescent dye and used for the competition assay. In brief, human γc expressing Ramos B cells were first labelled with unconjugated hSM-05A for an hour before further incubation with FITC-conjugated hSM-05E.

The test system of a further series is T cells. The experiment in a line: Mixed lymphocyte reaction (MLR) in human PBMC. It is filed as cell-based. The conditions noted are these: CFSE, flow cytometry. How it is done: To provide hints at effects of humanized antibodies to target GvHD, MLR assay was developed in our PBMC system (FIG. 29A). In brief, total T cells were isolated from PBMC of donor 1 while T cells were depleted from PBMC of donor 2. T cells from donor 1 were activated with a cocktail of anti-CD3 and anti-CD28 antibodies in the presence of IL-2. Simultaneously, T cells were incubated with humanized antibodies or ritlecitinib together with inducing agents. After 3 days, T cells were labelled with CFSE before co-culture with T-cell depleted culture from donor 2 for 6 days. Proliferating T cells were identified as CFSE low or CSFE negative population in flow cytometry.
For orientation: A flow cytometer gives signals particle by particle.

The mark [2] stands for this setting: room temperature or 37° C. for around 2 weeks.

Substitutions are numbered along the chain they refer to.

B1: hSM-05A: full-length humanized anti-γc antibody derived from SM-05A by framework patching (antibody, V domains shown)
VH: QVQLVQSGAEVLKPGASVKVSCKASGYTFTEYTMHWVKQARGQRLEWIGGIDPYNGGATYNQRFKGKATLTTDTSTSTAYMELRNLRSDDTAVYYCARRRLYYGNALDYWGQGTLVTVSS
VL: DIVMTQSPLSLPVTPGEQASISCRSSQSLVHSNGNTYLHWYLQKPGQSPQLLIYKVSSRFSGVPDRFSGSGSGTDFTLKISRVEAEDVGVYFCSQTTHVPFTFGSGTKLEIKR
As for B1, in the series with mouse γc, the “Ka” value amounted to 6580 M⁻¹ s⁻¹ and the “Kdis” value turned out to be 0.000712 s⁻¹. The “IL-2 induced p-STAT3, percentage of inhibition” value in the series with IL-2 induced p-STAT3 was 89.94%. Moreover, the “IL-4 induced p-STAT6, percentage of inhibition” value with IL-4 induced p-STAT6 was 17.18%. Further, in the series with IL-7 induced p-STAT5, the “IL-7 induced p-STAT5, percentage of inhibition” value worked out at 94.17%. In addition, the “IL-21 induced p-STAT3, percentage of inhibition” value with IL-21 induced p-STAT3 was determined as 82.80%. Moreover, the “purity by SEC-HPLC after incubation” value in series [1] is “around 99.9%”. Besides, in series [1] (setting [2]), the “aggregation state after incubation” value is “remained as single molecule”. The ADCC activity result in the series with HaCaT cells is given as “could not induce any ADCC nor CDC activities”. In the series with γc proteins from human, the “ELISA binding to human γc” value was “retained the binding affinity and specificity”. Further, in the series with human γc protein, the “epitope competition between hSM-05A and hSM-05E” value is given as “could compete on a similar epitope on the human γc protein”. In addition, in the series on T cells, the “inhibition of MLR induced expansion of cytotoxic T cells” value was “could significantly inhibit” and the “suppression of MLR induced expansion of T helper cells” value was “the suppression was milder to T helper cells”.

B2: hSM-05E: full-length humanized anti-γc antibody derived from SM-05E by framework patching (antibody, V domains shown)
VH: B1 VH with Y54N, N55T, A58V, R63K, L101R, N105Y
VL: B1 VL with L29I, H39E, S58N, T96S, T102M
B2: in the series with mouse γc, the “Ka” value came out at 340000 M⁻¹ s⁻¹ and the “Kdis” value stood at 0.0252 s⁻¹. Moreover, the “IL-2 induced p-STAT3, percentage of inhibition” value in the series with IL-2 induced p-STAT3 is given as 58.45%. In addition, the “IL-4 induced p-STAT6, percentage of inhibition” value in the series with IL-4 induced p-STAT6 is 21.74%. Moreover, in the series with IL-7 induced p-STAT5, the “IL-7 induced p-STAT5, percentage of inhibition” value worked out at 66.02%. Further, the “IL-21 induced p-STAT3, percentage of inhibition” value in the series on IL-21 induced p-STAT3 is 100%. Also, the “purity by SEC-HPLC after incubation” value in [1] was “around 80%”. For the same molecule, the fraction forming aggregates result in series [1] (setting [2]) is reported as “around 20%”. In addition, the ADCC activity result in the series on HaCaT cells was “could not induce any ADCC nor CDC activities”. Moreover, the “ELISA binding to human γc” value with γc proteins from human was “retained the binding affinity and specificity”. Moreover, the “epitope competition between hSM-05A and hSM-05E” value with human γc protein is recorded as “could compete on a similar epitope on the human γc protein”. Further, in the series with T cells, the “inhibition of MLR induced expansion of cytotoxic T cells” value is reported as “could significantly inhibit” and the “suppression of MLR induced expansion of T helper cells” value is recorded as “the suppression was milder to T helper cells”.
